Assay results as given in the supplement of paper PMC9112550, “Optimization of the antimicrobial peptide Bac7 by deep mutational scanning” (BMC Biology, 2022).

These sequences were tested on Escherichia coli TOP10 (assay: shrunken log2 fold change of peptide-encoding DNA abundance (4.5 h post-induction vs induction); higher = less antimicrobial activity (less host growth inhibition)). Settings: time post-induction: 4.5 h; library: site-saturation at positions 5, 18, 19, 20.
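Note: peptides expressed intracellularly from a pBAD plasmid library in pooled LB shake-flask culture, induced with 0.3% L-arabinose, DNA abundance read by NGS, three biological replicates, DESeq2 with apeglm shrinkage.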

Sequence | shrunken log2 fold change
RRIRYRPPRLPRPRPRPKNDPRP | -0.737
RRIRKRPPRLPRPRPRPPNCPRP | 0.0388
RRIRHRPPRLPRPRPRPHQVPRP | -0.00848
RRIRFRPPRLPRPRPRPVNEPRP | -0.288
RRIRKRPPRLPRPRPRPWPEPRP | 0.0451
RRIRCRPPRLPRPRPRPCHVPRP | -0.00144
RRIRTRPPRLPRPRPRPITPPRP | -0.237
RRIRLRPPRLPRPRPRPNHDPRP | -0.333
RRIRYRPPRLPRPRPRPESLPRP | -0.0595
RRIRGRPPRLPRPRPRPDIGPRP | 0.663
RRIRTRPPRLPRPRPRPMDGPRP | -0.123
RRIRNRPPRLPRPRPRPAKDPRP | 0.0231
RRIRSRPPRLPRPRPRPMGAPRP | 0.188
RRIRWRPPRLPRPRPRPWAFPRP | 0.044
RRIRLRPPRLPRPRPRPYTCPRP | -0.223
RRIRSRPPRLPRPRPRPPNYPRP | -0.606
RRIRFRPPRLPRPRPRPIDWPRP | -0.0094
RRIRRRPPRLPRPRPRPQGAPRP | -0.0933
RRIRIRPPRLPRPRPRPAVNPRP | 0.131
RRIRPRPPRLPRPRPRPRCPPRP | 0.208
RRIRTRPPRLPRPRPRPKYQPRP | -0.68
RRIRCRPPRLPRPRPRPNCQPRP | -0.134
RRIRARPPRLPRPRPRPSFKPRP | -0.109
RRIRWRPPRLPRPRPRPYAMPRP | 0.0576
RRIRSRPPRLPRPRPRPKAQPRP | 0.103

Sequence | shrunken log2 fold change
RRIRIRPPRLPRPRPRPWFEPRP | -0.161
RRIRARPPRLPRPRPRPNVNPRP | -0.0484
RRIRLRPPRLPRPRPRPAGMPRP | 0.213
RRIRCRPPRLPRPRPRPVLAPRP | -0.0206
RRIRMRPPRLPRPRPRPRNPPRP | 3.17
RRIRCRPPRLPRPRPRPPRCPRP | 1.9
RRIRQRPPRLPRPRPRPPQQPRP | 0.497
RRIRTRPPRLPRPRPRPMNWPRP | -0.234
RRIRIRPPRLPRPRPRPQEKPRP | 0.0553
RRIRWRPPRLPRPRPRPIKDPRP | 0.211
RRIRTRPPRLPRPRPRPGWWPRP | 0.158
RRIRRRPPRLPRPRPRPFYPPRP | -0.189
RRIRWRPPRLPRPRPRPVLKPRP | 0.637
RRIRFRPPRLPRPRPRPNCTPRP | 0.0099
RRIRVRPPRLPRPRPRPQHAPRP | -0.154
RRIRLRPPRLPRPRPRPSFTPRP | -0.672
RRIRRRPPRLPRPRPRPGCKPRP | 0.12
RRIRPRPPRLPRPRPRPSPQPRP | 0.2
RRIRLRPPRLPRPRPRPPCIPRP | -0.519
RRIRLRPPRLPRPRPRPVCAPRP | 0.174
RRIRQRPPRLPRPRPRPVWVPRP | 0.0799
RRIRGRPPRLPRPRPRPKHNPRP | 0.203
RRIRDRPPRLPRPRPRPFMNPRP | -0.117
RRIRIRPPRLPRPRPRPVCNPRP | -0.52
RRIRSRPPRLPRPRPRPAVIPRP | -0.593

Sequence | shrunken log2 fold change
RRIRWRPPRLPRPRPRPTEPPRP | -0.0787
RRIRRRPPRLPRPRPRPDCEPRP | 0.363
RRIRKRPPRLPRPRPRPFQRPRP | -0.0265
RRIRIRPPRLPRPRPRPEPSPRP | 3.27
RRIRPRPPRLPRPRPRPCSGPRP | -0.0356
RRIRGRPPRLPRPRPRPDINPRP | 1.68
RRIRQRPPRLPRPRPRPNNTPRP | -0.578
RRIRHRPPRLPRPRPRPRGVPRP | 0.335
RRIRERPPRLPRPRPRPRNRPRP | -0.134
RRIRCRPPRLPRPRPRPFTMPRP | -1.13
RRIRCRPPRLPRPRPRPRMAPRP | 0.331
RRIRSRPPRLPRPRPRPDATPRP | 0.816
RRIRARPPRLPRPRPRPVTYPRP | -0.265
RRIRVRPPRLPRPRPRPRRHPRP | 0.252
RRIRIRPPRLPRPRPRPSCNPRP | -0.576
RRIRKRPPRLPRPRPRPDKTPRP | -0.0726
RRIRQRPPRLPRPRPRPPKIPRP | 0.156
RRIRKRPPRLPRPRPRPRYEPRP | 0.362
RRIRSRPPRLPRPRPRPQSQPRP | -0.258
RRIRTRPPRLPRPRPRPMPIPRP | -0.0197
RRIRERPPRLPRPRPRPDIPPRP | -0.366
RRIRKRPPRLPRPRPRPTTNPRP | 0.486
RRIRYRPPRLPRPRPRPTPMPRP | 0.843
RRIRARPPRLPRPRPRPIVQPRP | 0.0602
RRIRRRPPRLPRPRPRPHERPRP | 0.225
